Data reported in patent US20230295297A1 (Alector, published 2023).
Where a chain is given by its changes, count along the chain named.

B1: 8A1 (antibody, IgG2a, V domains shown)
VH: EVQLQQSGAELVKPGASVKISCKASGYAFSNYWMSWVKQRPGKGLEWIGQIYPGDGDTKYNGKFEGKATLTADKSSSTAYMQLSSLTSEDSAVYFCSREKGADYYGSTYSAWFSYWGQGTLVTVSA
VL: DIQMTQSPASLSVSVGETVTITCRTSENVYSNLAWYQQKQGKSPQLLVYAATNLADGVPSRFSASGSATQFSLKINSLQSADFGSYYCHHFWGTPYTFGGGTKLEMN
notes: mIgG2a
B2: 2H8 (antibody, IgG1, V domains shown)
VH: EVQLVESGGGLVQPKGSLKLSCAASGFSFNTYAMNWVRQAPGKGLEWIARIRSKSNNYATYYADSVKDRFTCSRDDSENMFYLQLSSLKTEDTAMYYCVRHGDGNLWYIDVWGTGTTVTVSS
VL: NVLTQSPALMSASPGEKVTMTCSASSSVSYMYWYQQKPRSSPKPWIYLTSILASGVPARFSGSGSGTSYSLTISSMEAEDAATYYCQQWSFNPYTFGGGTKLVIK
notes: mIgG1
B3: 7F8 (antibody, IgG1, V domains shown)
VH: B2 VH with F70I, S122T
VL: VLTQSPALMSASPGEKVTMTCSASSSVSYMYWYQQKPRSSPKPWIYLTSILASGVPARFSGSGSGTSYSLTINNMEAEDAATYYCQQWSFNPYTFGGGTKLVIK
notes: mIgG1
B4: 9F5 (antibody, IgG1, V domains shown)
VH: QVQLQQSGPELVKPGASLKISCKASGYAFSSSWMNWVKQRPGKGLEWIGRIYPGDGDTNYNGEFRVRATLTADTSSTTAYMQLSSLTSEDSAVYFCARLLRNQPGESYAMDYWGQGASVTVSS
VL: DVVMTQTPLSLPVSLGDQASISCRSSQSLVHSNGYTYLHWYLQKPGQSPKLLIYKVSNRFSGVPDRFSGSGSGTDFTLKISRVEADDLGVYFCSQSTRVPYTFGGGTKLEIK
notes: mIgG1; VH FR 169/184/202/216, HVR 60/78/97; also called mAb T2-9F5.1; 9F5 MAb
B5: 9G1 (antibody, IgG1, V domains shown)
VH: QVQLQQSGAELVKPGASVKLSCKASGYIFTTYWIHWVKQRPGRGPEWIGRIDPNNGDTNYNEKFKTKATLTVDKPSSTADMQLSSLTSEDSAVYYCVMTGTDFDYWGQGTTLTVSS
VL: B4 VL with V3L, S25F, Y35N, K79R, R82G, D86E, Y101P
notes: mIgG1
B6: 3A2 (antibody, IgG1, V domains shown)
VH: QVQLQQSGAELVKPGASVKMSCKTSGYPFSNFWITWVKQRPGQGLVWIGDIYPGSDNSNYNEKFKTKATLTVDTSSSTAYMHLSSLTSEDSAVYFCAREAYYTNPGFAYWGQGTLVTVST
VL: DVVMTQTPLSLPVSLGDQASISCRSSQTIIHSNGNTYLEWYLRKPGQSPKLLIYKVSNRFSGVPDRFSGSGSGTDFTLKISRVEAEDLGVYYCFQGSHVPYTFGGGTELEIK
notes: mIgG1; variable domains built FR1-HVR1-FR2-HVR2-FR3-HVR3-FR4
B7: 6H2 (antibody, IgG2a, V domains shown)
VH: QVQLQESGPGLVQPSQSLSIICTVSAFSLTNYAVHWIRQSPGKGLEWLGVIWSGGSTAFNAAFISRLNISKDNSKSQVFFKMNSLQSDDTAIYYCATHYYRSTYAFSYWGQGTLVTVSA
VL: B6 VL with V3L, T28S, I30V, R43Q, Y101F, G105S, E108K
notes: mIgG2a
B8: 10A9 (antibody, IgG1, V domains shown)
VH: B6 VH with L11V, S58R, Y60F, K63R, T120A
VL: B6 VL with S61C
notes: mIgG1

Columns and labels:
[1] = target: T1, recombinant human TREM2-DAP12 fusion protein expressed on cells (human); experiment: KD cell binding
T1 construct: also called HEKhT2; 293 cells expressing human TREM2; not shown: None of these limits is stated
T1 chain: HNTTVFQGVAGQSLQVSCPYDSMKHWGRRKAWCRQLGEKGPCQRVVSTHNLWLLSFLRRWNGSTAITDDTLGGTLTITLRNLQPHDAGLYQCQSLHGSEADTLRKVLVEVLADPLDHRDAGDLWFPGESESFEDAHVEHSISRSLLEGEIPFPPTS

[2] = target: T2, human TREM2 on primary cells (human, UniProt Q9NZC2 19-230); experiment: FACS, primary hDC
T2 construct: also called TREM2 on hDC; hMAC
T2 sequence: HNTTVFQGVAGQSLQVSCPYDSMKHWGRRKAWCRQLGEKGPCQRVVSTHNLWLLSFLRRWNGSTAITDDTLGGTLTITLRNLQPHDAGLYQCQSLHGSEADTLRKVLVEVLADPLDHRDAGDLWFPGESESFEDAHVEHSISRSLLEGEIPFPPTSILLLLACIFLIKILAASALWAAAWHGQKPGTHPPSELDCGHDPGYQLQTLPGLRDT

[3] = target: T1, recombinant human TREM2-DAP12 fusion …; experiment: FACS, HEKhT2 cells
[4] = target: T2, human TREM2 on primary cells; experiment: FACS, primary hMAC
mouse TREM2 on cells [5] = target: T3, mouse TREM2 on cells (mouse, UniProt Q99NH8 19-227); experiment: KD cell binding
T3 construct: recombinant on BWZ cells (with DAP12) and native on mouse macrophages; also called BWZmT2; BWZ T2
T3 sequence: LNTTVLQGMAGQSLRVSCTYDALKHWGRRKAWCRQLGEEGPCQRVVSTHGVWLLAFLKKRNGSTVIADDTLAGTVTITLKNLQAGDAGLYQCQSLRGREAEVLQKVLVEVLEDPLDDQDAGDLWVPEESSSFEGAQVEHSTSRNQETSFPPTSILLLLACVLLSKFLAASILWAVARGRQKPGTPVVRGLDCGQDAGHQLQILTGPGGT

mouse TREM2 on cells [6] = target: T3, mouse TREM2 on cells; experiment: FACS on thioglycollate-induced macrophages of wild-type mice (mouse TREM2 only), gated CD11b+ F4/80+
E151A [7] = target: T4, E151A; experiment: shotgun alanine scanning: immunofluorescence flow cytometry on HEK-293T cells expressing the mutant chimera
T4 construct: also called hTREM2-Dap12 chimera with E151A; not shown: Transmembrane/cytoplasmic stretch and the Dap12 portion of the chimera
T4 chain: T1 chain with E133A

D152A [8] = target: T5, D152A; experiment: as above
T5 construct: also called hTREM2-Dap12 chimera with D152A; not shown: Transmembrane/cytoplasmic stretch and the Dap12 portion of the chimera
T5 chain: T1 chain with D134A

H154A [9] = target: T6, H154A; experiment: as above
T6 construct: also called hTREM2-Dap12 chimera with H154A; not shown: Transmembrane/cytoplasmic stretch and the Dap12 portion of the chimera
T6 chain: T1 chain with H136A

K42A = target: T7, K42A; experiment: shotgun alanine scanning: immunofluorescence flow cytometry on HEK-293T cells expressing the mutant chimera; mean of duplicates, range in brackets
T7 construct: also called hTREM2-Dap12 chimera with K42A; not shown: Transmembrane/cytoplasmic stretch and the Dap12 portion of the chimera
T7 chain: T1 chain with K24A

G45A = target: T8, G45A; experiment: as above
T8 construct: also called hTREM2-Dap12 chimera with G45A; not shown: Transmembrane/cytoplasmic stretch and the Dap12 portion of the chimera
T8 chain: T1 chain with G27A

R77A = target: T9, R77A; experiment: as above
T9 construct: also called hTREM2-Dap12 chimera with R77A; not shown: Transmembrane/cytoplasmic stretch and the Dap12 portion of the chimera
T9 chain: T1 chain with R59A

H114A = target: T10, H114A; experiment: as above
T10 construct: also called hTREM2-Dap12 chimera with H114A; not shown: Transmembrane/cytoplasmic stretch and the Dap12 portion of the chimera
T10 chain: T1 chain with H96A

E151A [10] = target: T4, E151A; experiment: as above
D152A [11] = target: T5, D152A; experiment: as above
H154A [12] = target: T6, H154A; experiment: as above
E156A = target: T11, E156A; experiment: as above
T11 construct: also called hTREM2-Dap12 chimera with E156A; not shown: Transmembrane/cytoplasmic stretch and the Dap12 portion of the chimera
T11 chain: T1 chain with E138A

| Binder | Kd [1] [nM] | % Positive hDC [2] [%] | MFI HEKhT2 [3] [MFI] | % Positive hMAC [4] [%] | other results |
| --- | --- | --- | --- | --- | --- |
| B1 | 4.64 | 94 | 11000 | 34 | – |
| B2 | – | – | – | – | Kd (mouse TREM2 on cells [5]): 6.86 nM |
| B3 | – | – | – | – | Kd (mouse TREM2 on cells [5]): 1.78 nM |
| B4 | 0.96 | 73 | 2910 | 26 | binding result (mouse TREM2 on cells [6]): no binding; binding result (E151A [7]): no binding; binding result (D152A [8]): no binding; binding result (H154A [9]): no binding; Binding Reactivity (% WT) (K42A): 131 % WT; Binding Reactivity (% WT) (G45A): 145 % WT; Binding Reactivity (% WT) (R77A): 124 % WT; Binding Reactivity (% WT) (H114A): 114 % WT; Binding Reactivity (% WT) (E151A [10]): 4.8 % WT; Binding Reactivity (% WT) (D152A [11]): 2.7 % WT; Binding Reactivity (% WT) (H154A [12]): 3 % WT; Binding Reactivity (% WT) (E156A): 17.7 % WT |
| B5 | 9.06 | 60 | 3080 | 20 | – |
| B6 | 4.98 | 77 | 7300 | 18 | – |
| B7 | 5.4 | 83.9 | 13500 | – | – |
| B8 | 4.24 | 96 | 11900 | 64 | binding result (mouse TREM2 on cells [6]): no binding |
